These results are taken from the nanobody polyreactivity screen of Harvey et al. (2022).

This data set is described as follows: yeast display, Sf9 membrane polyspecificity reagent, FACS + sequencing; frameworks hold sequencing errors. Put shortly: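 Nanobodies from a synthetic yeast display library (Saccharomyces cerevisiae BJ5465), induced 36–48 hours with galactose, were stained 1 hour at 4 °C with 10% biotinylated, detergent-solubilized Sf9 membrane reagent, enriched on streptavidin microbeads, then FACS-sorted. Anti-HA (expression) and streptavidin (reagent binding) fluorescence set low and high (top ~1%) gates. Polyreactivity labels come from the gate of origin. Genes were colony-PCR amplified, MiSeq 2 × 250 sequenced and filtered by CDR length.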
As for “QVQLVESGGGLVQAGGSLRLSCAASGRIFEHYAMGWYRQAPGKERELVASISSGDRTNYADSVKGRFTISRDNAKNTVYLQMNSLKPEDTAVYYCNALQLYGKGKRVGFGYWGQGTQVTVSS”, the “polyreactivity (PSR sort gate)” value is “low polyreactivity”.

In the case of “QVQLVESGGGLVQAGGSLRLSCAASGRIFENDMGWYRQAPGKERELVATIRSDGSTNYADSVKGRFTISRDNAKNTVYLQMNSLKPEDTAVYYCAADYLGPDYFFFSNYPYDYWGQGTQVTVSS”, the “polyreactivity (PSR sort gate)” value was “low polyreactivity”.

Turning to “QVQLVESGGGLVQAGGSLRLSCAASGRIFEPYTMGWYRQAPGKEREFVATITASGDSTYYADSVKGRFTISRDNAKNTVYLQMNSLKPEDTAVYYCAAAPFGGYEYDYWGQGTQVTVSS”, the “polyreactivity (PSR sort gate)” value is reported as “high polyreactivity”.

Consider “QVQLVESGGGLVQAGGSLRLSCAASGRIFERNAMGWYRQAPGKERELVAAITYNGGRTYYADSVKGRFTISRDNAKNTVYLQMNSLKPEDTAVYYCNAQSRVTRSSYRGSPRYDYWGQGTQVTVSS”, for which the “polyreactivity (PSR sort gate)” value was “low polyreactivity”.

Regarding “QVQLVESGGGLVQAGGSLRLSCAASGRIFERNAMGWYRQAPGKERELVARITSGGGTYYADSVKGRFTISRDNAKNSVYLQMNSLKPEDTAVYYCAVQYLYRKYRRYDYWGQGTQVTVSS”, the “polyreactivity (PSR sort gate)” value was “high polyreactivity”.

For the sequence “QVQLVESGGGLVQAGGSLRLSCAASGRIFERYAMGWYRQEPGKERELVAGISISGGGTYYADSVKGRFTISRDNAKNTVYLQMNSLKPEDTAVYYCAGTFPREEYGYWGQGTQVTVSS”, the “polyreactivity (PSR sort gate)” value is listed as “low polyreactivity”.

In the case of “QVQLVESGGGLVQAGGSLRLSCAASGRIFERYPMGWYRQAPGKERELVAGISISGGGTYYADSVKGRFTISRDTAKNTVYLQRNSLKPEDTAVSYCAATFPREEYGYWGQGTLVTVSS”, the “polyreactivity (PSR sort gate)” value was “low polyreactivity”.

In the case of “QVQLVESGGGLVQAGGSLRLSCAASGRIFESYAMGWYRQAPGKERELVAAISSGGGTTYYADSVKGRFTISRDNAKNTVYLQMNSLKPEDTAVYYCAADALSDEYDYWGQGTQVTVSS”, the “polyreactivity (PSR sort gate)” value is reported as “low polyreactivity”.

On to “QVQLVESGGGLVQAGGSLRLSCAASGRIFEVYAMGWYRQAPGKERELVAAIRSGGNTYYADSVKGRFTISRDNAKNTVYLQMISLKPEDTAVYYCAARYKPPFGGYTYYYWGQGTQVTVSS”, for which the “polyreactivity (PSR sort gate)” value was “high polyreactivity”.

Regarding “QVQLVESGGGLVQAGGSLRLSCAASGRIFEVYAMGWYRQAPGKERELVAAITSSGGSRTYYADSVKGRFTISRDNAKNTVYLQMNSLKPEDTAVYYCAASTHRGRYKRYDYWGQGTQVTVSS”, the “polyreactivity (PSR sort gate)” value is “high polyreactivity”.

As to “QVQLVESGGGLVQAGGSLRLSCAASGRIFFAYAMGWYRQAPGKERELVAAIRFSGGTTYYADSVKGRLTFSRDNAKNTVYLQMNSLKQEDTAVYYFAAGRRRSSSGYGYWGKGTQVTVSS”, the “polyreactivity (PSR sort gate)” value was “high polyreactivity”.

For “QVQLVESGGGLVQAGGSLRLSCAASGRIFFFYAMGWYRQAPGKERELVATITWTDGSTDYADSVKGRFTISRDNAKNTVYLQMNSLKPEDTAVYYCAKDEYVSRYDYWGQGTQVTVSS”, the “polyreactivity (PSR sort gate)” value is “low polyreactivity”.

As to “QVQLVESGGGLVQAGGSLRLSCAASGRIFFIYAMGWYRPAPGKERELVAAISSSGGTTYYADSVKGRFTISRDNAKNTVYLQMNSLKPEDTAVYYCAARSAATHWTFLFYYDFDYWGQGSQVTVSS”, the “polyreactivity (PSR sort gate)” value is listed as “low polyreactivity”.

With “QVQLVESGGGLVQAGGSLRLSCAASGRIFFKNAMGWYRQAPGKDRELVAAISWSGGRTYYADSVKGRFTISRDNAKNTVYLQMNSLKPEDSAVYYCATRYHVGKYLYGYWGQGTQVTVSS”, the “polyreactivity (PSR sort gate)” value is recorded as “high polyreactivity”.

As for “QVQLVESGGGLVQAGGSLRLSCAASGRIFFKNAMGWYRQAPGKERELVAGISWSGGRTYYADSVKGRFTISRDNAKNTVYLQMNSLKPEDTAVYYCNAGSSFYRSLRYEYWGQGTQVTVSS”, the “polyreactivity (PSR sort gate)” value was “high polyreactivity”.

In the case of “QVQLVESGGGLVQAGGSLRLSCAASGRIFFPYAMGWYRQAPGKEREFVAAITTGCGSTYYADSVKGRFTISRDNAKNTVYLQMNSLKPEDTAVYYCAKRTYSRKFRGAYNYWGQGTQVTVSS”, the “polyreactivity (PSR sort gate)” value was “high polyreactivity”.
